Data taken from US20180207202A1, “METHODS FOR MOBILIZING HEMATOPOIETIC STEM CELLS” (Ohio State Innovation Foundation, priority 2013, published 2018).
Where two headings read alike, the source gives them in different places.

Legend:
CD8+ T cells = CD8+ T cells in mobilized peripheral blood, flow cytometry (Example 3); assay type: in vivo, mice (WT B6D2F1/J); conditions: group of three mice
Procedure: It is known that donor CD8^+ T cells are mainly responsible for GVHD in HSCT, and G-CSF is considered a toxic mobilizer as it also induces GVHD.
In FIG. 3, WT B6D2F1/J mice were treated with FLT3L or G-CSF for 10 or 5 days, respectively, followed by a one-hour Plerixafor treatment. PBS served as a control. Peripheral blood cells were assayed by flow cytometry to examine percentages of CD8^+ T cells ([…]) in total white blood cells. Data were summarized from a group of three mice.

[1] = tested on: HSCs (Lin-Sca-1+c-Kit+, LSK cells); assay: LSK cell mobilization into peripheral blood, flow cytometry (Example 6); assay type: in vivo, C57BL/6 mice
Procedure: (§1) C57BL/6 mice were injected intraperitoneally (i.p.) either (i) with recombinant human FLT3L (Celldex Therapeutics or Miltenyi Biotec) ([…]) for 10 consecutive days or (ii) with G-CSF (Amgen) ([…]) for 5 consecutive days. The capacity of human FLT3L to bind murine FLT3L receptors and Plerixafor to block murine Cxcr4 receptor was previously reported. (See, e.g., Lyman et al., 1994; Brawel et al., 1996; Gerlach et al., 2001; Broxmeyer et al., 2005). Twelve hours after the last dose of either FLT3L or G-CSF, the mice were injected i.p. with either PBS or Plerixafor (AMD3100, Sigma) (5 mg/kg). The mice were euthanized one hour later.
As described by Ferraro et al., 2011, peripheral blood was collected retro-orbitally while the mice were under deep anesthesia. Briefly, the mice were […] by an i.p. injection with 100 μL of a mixture of ketamine (54.3 mg/mL) and xylazine (9.1 mg/mL). Blood was collected from the retro-orbital venous plexus through a microcapillary heparinized tube. The mice were then euthanized while still deeply anesthetized. RBCs were depleted by RBC lysis buffer. The remaining cells were subjected to flow cytometric analysis or transplantation.
The mAbs reactive with murine cell antigens were purchased from BD Biosciences or eBioscience. Cell preparation and analysis were performed as described by Yu et al., 2010. […]

[2] = tested on: lethally irradiated BALB/c mice; assay: Allogeneic transplantation of mobilized grafts into lethally irradiated mice (Example 6); assay type: in vivo, BALB/c mice (grafts from C57BL/6); conditions: 8×10^5 mobilized cells per recipient
Procedure: For allogeneic transplantation, each recipient BALB/c mouse was subjected to a lethal irradiation (delivered in 2 fractions separated by 4 hours using RS 2000 X-Ray Q2 Irradiator) and was then injected with 8×10^5 mobilized RBC depleted peripheral blood cells isolated from C57BL/6 mice. […] Considering the likely graft rejection and GVHD complication in the allogeneic model, a 4-fold higher number of cells (i.e., 8×10^5 donor cells isolated from C57BL/6 mice) were administered intravenously (i.v.) into each BALB/c recipient for allogeneic transplants. The lethally irradiated mice were housed in a sterile environment and baytril antibiotic was provided in the drinking water to prevent infection-caused mortality. After transplantation, mice were monitored daily and the phenotypes of the mice were recorded.
(§2) Irradiated mice without any cell infusion (IR Ctl) served as a control group. A total of 2×10^5 (A) or 8×10^5 (B) peripheral blood cells were transplanted for each recipient. Each group contains 5 to 8 mice. A log-rank test was used to compare survival curves.
In FIG. 16, lethally irradiated BALB/c mice were transplanted with grafts from C57BL/6 mice that were mobilized by the indicated regimens. At four months post-transplantation, the surviving mice were sacrificed.

[3] = tested on: NK cells, Tregs, DCs, monocytes, neutrophils; assay: Immune cell subsets in mobilized peripheral blood, flow cytometry (Example 6); assay type: in vivo, C57BL/6 mice
Procedure: as §1
The mAbs reactive with murine cell antigens were purchased from BD Biosciences or eBioscience. Cell preparation and analysis were performed as described by Yu et al., 2010. The immune subsets were gated as CD3^−NK1.1^+ for natural killer (NK) cells, CD3^+CD25^+Foxp3^+ for regulatory T cells (Tregs), B220^−CD11c^+CD11b^− for conventional dendritic cells (cDCs), and CD11b^−CD11c^lowPDCA1^+SiglecH^+ for plasmacytoid DCs (pDCs).
In FIG. 12, the constitution of immune cell subsets in mobilized peripheral blood was determined by flow cytometric analysis with corresponding antibodies (B cell: CD3^−CD19^+, T cell: CD3^+NK1.1^−; NK cell: CD3^−NK1.1^+; Neutrophil: Gr1^highCD11b^+; Monocyte: Gr1^medCD11b^+; DC: CD11c^+). […]

[4] = tested on: lethally irradiated C57BL/6 mice; assay: Syngeneic transplantation of mobilized grafts into lethally irradiated mice (Example 6); assay type: in vivo; conditions: 2×10^5 mobilized cells per recipient
Procedure: For syngeneic transplantation, C57BL/6 mice were subjected to 9 Gy of irradiation delivered in 2 fractions separated by 4 hours using RS 2000 X-Ray Q2 Irradiator (Rad Source Technologies, Suwanee GP). Four hours later, each mouse was transplanted via the tail vein with 2×10^5 mobilized RBC-depleted peripheral blood cells from C57BL/6 mice. […] The lethally irradiated mice were housed in a sterile environment and baytril antibiotic was provided in the drinking water to prevent infection-caused mortality. After transplantation, mice were monitored daily and the phenotypes of the mice were recorded.
as §2

NK cells (NK1.1+CD3-) = assay: NK cell expansion in peripheral blood and spleen, flow cytometry (Example 2); assay type: in vivo, mice (WT C57BL/6 or B6D2F1/J)
From the text: […] PBS; gated on total white blood cells).
In FIG. […] PBS served as a control. Peripheral blood cells were counted using trypan blue and assayed by flow cytometry to examine percentages of NK cells (NK1.1^+CD3^−).

[5] = tested on: Lin-c-kit+Sca-1+ HSCs and Lin-c-kit+Sca-1- progenitor cells; assay: Mobilization of HSCs and committed progenitors into peripheral blood, flow cytometry (Example 1); assay type: in vivo, mice (WT B6D2F1/J)
From the text: Since HSCs are important for long-term reconstitution and progenitor cells are critical for short-term rapid reconstitution in transplantation, whether a combination of FLT3L and Plerixafor can mobilize both types of cells was investigated. In mice, Lin^−c-kit^+Sca-1^+ cells are enriched HSCs and Lin^−c-kit^+Sca-1^− cells are more committed progenitor cells. […] Furthermore, the mobilization effect of the FLT3L and Plerixafor combination was much stronger than the G-CSF and Plerixafor combination, the strongest mobilizer currently used clinically (5.9% vs. 2%, 10.3% vs. 1%, n=3, p<0.01, respectively). The flow results were validated by another method, stem cell colony formation assay.
In FIG. 1, WT B6D2F1/J mice were treated with FLT3L or G-CSF for 10 or 5 days, respectively, followed by a one-hour Plerixafor treatment. PBS served as a control. On the last day of the treatment, mice were sacrificed and peripheral blood cells were subjected to flow cytometry to determine percentages (among total WBC) of stem-cell enriched (Lin^−CD117^+Sca-1^+) (FIG. 1A) or more committed precursor cells ([…]) (FIG. 1B).

[6] = tested on: lethally irradiated syngeneic mouse model; assay: Survival of lethally irradiated syngeneic mice given mobilized peripheral blood cells (Example 5); assay type: in vivo, mice (C57BL/6); conditions: 0.2 million mobilized PB cells per lethally irradiated recipient
Procedure: Peripheral blood (PB) mobilized by FLT3L and Plerixafor prolongs mouse survival in a lethally irradiated syngeneic mouse model and a fully mismatched acute GVHD model. To test whether the mobilized stem cells and other immune cells can improve transplantation, mobilized cells were administered to lethally irradiated (IR) syngeneic mice at the dose of 0.2 million PB cells for each recipient mouse.

[7] = tested on: fully mismatched acute GVHD model; assay: Survival in fully mismatched acute GVHD model given mobilized peripheral blood cells (Example 5); assay type: in vivo, mice (C57BL/6 to BALB/c); conditions: 0.8 million mobilized cells per mouse
[8] = tested on: peripheral blood stem cells; conditions: cited from earlier work
[9] = tested on: mice syngeneically infused; conditions: cited from earlier work

Molecule	proportion of CD8+ T cells in total white blood cells (CD8+ T cells)	number of LSK cells in blood compared with PBS-treated mice [1]	mice surviving to 4 months post-transplantation [2] [%]	NK (CD3-NK1.1+) cell percentages [3]	mice alive four months after transplantation [4]	survival rate at day 21 [4] [%]	NK cells in peripheral blood and spleen (NK cells (NK1.1+CD3-); FLT3L alone for 14 days)	NK cell content compared with the combination of GCSF and Plerixafor (NK cells (NK1.1+CD3-); gated on total white blood cells)	effect on progenitor cells and HSCs ([5]; FLT3L administration for 5 days)	Lin-c-kit+Sca-1+ HSC, percentage among total WBC ([5]; peripheral blood, FLT3L administration of 7 days and 10 days, printed as 0.13% vs. 1.8%, n=3, p<0.01) [%]	Lin-c-kit+Sca-1- progenitor cells, percentage among total WBC ([5]; peripheral blood, FLT3L administration of 7 days and 10 days, printed as 0.47% vs. 1.8%, n=3, p<0.01) [%]	protection from death [6]	survival rate two months (day 60) after transplantation [7] [%]	autologous transplant patients that respond poorly ([8]; G-CSF or G-CSF plus chemotherapy, varied depending on disease types and age)	normal donors that mobilize stem cells poorly ([8]; in response to G-CSF)	mice survived ([9]; 2.5×10^5 cells mobilized by G-CSF transplanted)	mice survived ([9]; syngeneically infused with 1×10^6 peripheral nucleated cells mobilized by G-CSF)
c1cc(CN2CCCNCCNCCCNCC2)ccc1CN1CCCNCCNCCCNCC1 [Plerixafor, reference compound]	moderately gave rise to a proportional increase	moderate increase	–	–	–	–	–	–	–	–	–	–	–	–	–	–	–
FLT3L: recombinant human FLT3L (Celldex Therapeutics or Miltenyi Biotec), stem cell-specific growth factor (protein, UniProt P49771 27-235, looked up) Fms-related tyrosine kinase 3 …: TQDCSFQHSPISSDFAVKIRELSDYLLQDYPVTVASNLQDEELCGGLWRLVLAQRWMERLKTVAGSKMQGLLERVNTEIHFVTKCAFQPPPSCLRFVQTNISRLLQETSEQLVALKPWITRQNFSRCLELQCQPDSSTLPPPWSPRPLEATAPTAPQPPLLLLLLLPVGLLLLAAAWCLHWQRTRRRTPRPGEQVPPVPSPQDLLLVEH	dramatically decreased	significantly more LSK cells	66	significantly increased	approximately 70%	100	dramatically increased	much higher NK cell content	increased only Lin-c-kit+Sca-1-progenitor cells but not HSCs	1.8	1.8	fully protect mice from death	60	–	–	–	–
G-CSF: Granulocyte colony stimulating factor (Amgen), routinely used to mobilize PBSC (protein, UniProt P09919 31-207, looked up) Granulocyte …: TPLGPASSLPQSFLLKCLEQVRKIQGDGAALQEKLVSECATYKLCHPEELVLLGHSLGIPWAPLSSCPSQALQLAGCLSQLHSGLFLYQGLLQALEGISPELGPTLDTLQLDVADFATTIWQQMEELGMAPALQPTQGAMPAFASAFQRRAGGVLVASHLQSFLEVSYRVLRHLAQP	–	–	–	–	–	–	–	–	–	–	–	–	–	10-30%	5-10%	around 17%	about 90%
